Source: US20150291692A1

Experiments:
[1] = molecular target: NK cells, including normal KIR3DL2+ NK cells (Homo sapiens) (UniProt P43630); assay: flow cytometry of whole blood of a Sezary Syndrome patient, antibody + GaM-PE against CD4; lower gate (CD4-negative NK cells)
[2] = molecular target: KIR3DL2 on fresh Sezary Syndrome cells of patients (human) (UniProt P43630); assay: flow cytometry of whole blood of a Sezary Syndrome patient, antibody + GaM-PE against CD4; upper gate (CD4+ cells)
KIR3DL2 on fresh Sezary Syndrome cells of patients (human), sequence (P43630 22-455): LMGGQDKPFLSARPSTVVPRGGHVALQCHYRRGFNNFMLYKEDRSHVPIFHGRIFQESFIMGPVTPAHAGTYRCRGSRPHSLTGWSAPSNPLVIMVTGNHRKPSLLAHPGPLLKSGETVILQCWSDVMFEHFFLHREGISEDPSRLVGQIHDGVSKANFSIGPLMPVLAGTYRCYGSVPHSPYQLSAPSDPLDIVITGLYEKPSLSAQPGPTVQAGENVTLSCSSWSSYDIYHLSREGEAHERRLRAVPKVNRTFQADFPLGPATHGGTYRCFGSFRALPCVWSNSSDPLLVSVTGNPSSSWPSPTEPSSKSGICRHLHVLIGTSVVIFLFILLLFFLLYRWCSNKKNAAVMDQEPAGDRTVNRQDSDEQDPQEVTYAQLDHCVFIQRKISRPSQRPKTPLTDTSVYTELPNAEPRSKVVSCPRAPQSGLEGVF

NK cells, including normal KIR3DL2+ NK cells (Homo sapiens), sequence (P43630 22-455 limits assumed): as the sequence (P43630 22-455) above

Isotype Control (antibody)
% of cells in gate NK GaM PE+ [1]: 0.9%
% of cells in gate CD4 GaM PE+ [2]: 0.1%
